Assay results published in IntAct's records for PubMed 31515488.

B1: AP-4 complex accessory subunit RUSC1 (Homo sapiens), Q9BVN2 (parent)
chain: MLSPQRALLCNLNHIHLQHVSLGLHLSRRPELQEGPLSTPPPPGDTGGKESRGPCSGTLVDANSNSPAVPCRCCQEHGPGLENRQDPSQEEEGAASPSDPGCSSSLSSCSDLSPDESPVSVYLRDLPGDEDAHPQPSIIPLEQGSPLASAGPGTCSPDSFCCSPDSCSGASSSPDPGLDSNCNALTTCQDVPSPGLEEEDERAEQDLPTSELLEADDGKIDAGKTEPSWKINPIWKIDTEKTKAEWKTTENNNTGWKNNGNVNSSWKSEPEKFDSGWKTNTRITDSGSKTDAGKIDGGWRSDVSEEPVPHRTITSFHELAQKRKRGPGLPLVPQAKKDRSDWLIVFSPDTELPPSGSPGGSSAPPREVTTFKELRSRSRAPAPPVPPRDPPVGWALVPPRPPPPPVPPRRKKNRPGLQPIAEGQSEEGRAVSPAAGEEAPAAKEPGAQAGLEVRSSWSFAGVPGAQRLWMAEAQSGTGQLQEQKKGLLIAVSVSVDKIISHFGAARNLVQKAQLGDSRLSPDVGHLVLTTLCPALHALVADGLKPFRKDLITGQRRSSPWSVVEASVKPGSSTRSLGTLYSQVSRLAPLSSSRSRFHAFILGLLNTKQLELWFSSLQEDAGLLSLLYLPTGFFSLARGGCPSLSTELLLLLQPLSVLTFHLDLLFEHHHHLPLGPPQAPAPPGPPPALQQTMQAMLHFGGRLAQSLRGTSKEAASDPSDSPNLPTPGSWWEQLTQASRVYASGGTEGFPLSRWAPGRHGTAAEEGAQERPLPTDEMAPGRGLWLGRLFGVPGGPAENENGALKSRRPSSWLPPTVSVLALVKRGAPPEMPSPQELEASAPRMVQTHRAVRALCDHTAARPDQLSFRRGEVLRVITTVDEDWLRCGRDGMEGLVPVGYTSLVL
B2: Cyclin-D1-binding protein 1 (Homo sapiens), O95273 (parent)
chain: MASATAPAAAVPTLASPLEQLRHLAEELRLLLPRVRVGEAQETTEEFNREMFWRRLNEAAVTVSREATTLTIVFSQLPLPSPQETQKFCEQVHAAIKAFIAVYYLLPKDQGITLRKLVRGATLDIVDGMAQLMEVLSVTPTQSPENNDLISYNSVWVACQQMPQIPRDNKAAALLMLTKNVDFVKDAHEEMEQAVEECDPYSGLLNDTEENNSDNHNHEDDVLGFPSNQDLYWSEDDQELIIPCLALVRASKACLKKIRMLVAENGKKDQVAQLDDIVDISDEISPSVDDLALSIYPPMCHLTVRINSAKLVSVLKKALEITKASHVTPQPEDSWIPLLINAIDHCMNRIKELTQSELEL
partner: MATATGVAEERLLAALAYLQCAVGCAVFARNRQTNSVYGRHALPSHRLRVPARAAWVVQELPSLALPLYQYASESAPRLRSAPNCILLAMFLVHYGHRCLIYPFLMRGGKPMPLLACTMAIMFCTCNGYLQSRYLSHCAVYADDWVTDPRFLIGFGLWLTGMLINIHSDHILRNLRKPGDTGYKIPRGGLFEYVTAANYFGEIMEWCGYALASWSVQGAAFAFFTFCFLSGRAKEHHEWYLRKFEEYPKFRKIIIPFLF
B3: Zinc finger and BTB domain-containing protein 9 (Homo sapiens), Q96C00 (parent)
chain: METPTPLPPVPASPTCNPAPRTIQIEFPQHSSSLLESLNRHRLEGKFCDVSLLVQGRELRAHKAVLAAASPYFHDKLLLGDAPRLTLPSVIEADAFEGLLQLIYSGRLRLPLDALPAHLLVASGLQMWQVVDQCSEILRELETSGGGISARGGNSYHALLSTTSSTGGWCIRSSPFQTPVQSSASTESPASTESPVGGEGSELGEVLQIQVEEEEEEEEDDDDEDQGSATLSQTPQPQRVSGVFPRPHGPHPLPMTATPRKLPEGESAPLELPAPPALPPKIFYIKQEPFEPKEEISGSGTQPGGAKEETKVFSGGDTEGNGELGFLLPSGPGPTSGGGGPSWKPVDLHGNEILSGGGGPGGAGQAVHGPVKLGGTPPADGKRFGCLCGKRFAVKPKRDRHIMLTFSLRPFGCGICNKRFKLKHHLTEHMKTHAGALHACPHCGRRFRVHACFLRHRDLCKGQGWATAHWTYK
partner: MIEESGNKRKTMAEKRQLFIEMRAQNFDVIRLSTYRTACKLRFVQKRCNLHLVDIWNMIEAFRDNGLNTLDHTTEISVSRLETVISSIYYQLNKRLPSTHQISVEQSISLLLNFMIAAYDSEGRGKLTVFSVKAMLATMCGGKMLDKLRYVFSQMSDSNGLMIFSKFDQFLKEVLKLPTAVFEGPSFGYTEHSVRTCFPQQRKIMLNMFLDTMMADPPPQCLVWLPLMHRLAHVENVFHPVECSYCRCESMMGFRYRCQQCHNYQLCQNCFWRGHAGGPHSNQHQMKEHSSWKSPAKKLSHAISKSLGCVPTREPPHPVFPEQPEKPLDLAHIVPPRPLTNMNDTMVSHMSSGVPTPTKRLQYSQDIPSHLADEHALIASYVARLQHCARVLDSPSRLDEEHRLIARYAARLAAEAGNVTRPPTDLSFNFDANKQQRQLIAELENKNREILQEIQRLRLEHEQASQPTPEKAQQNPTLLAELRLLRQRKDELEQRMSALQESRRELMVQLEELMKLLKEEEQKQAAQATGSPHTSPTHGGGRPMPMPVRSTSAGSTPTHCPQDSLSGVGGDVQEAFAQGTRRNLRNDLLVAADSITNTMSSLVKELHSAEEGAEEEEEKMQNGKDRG
B4: Angiomotin (Homo sapiens), Q4VCS5 (parent)
chain: MRNSEEQPSGGTTVLQRLLQEQLRYGNPSENRSLLAIHQQATGNGPPFPSGSGNPGPQSDVLSPQDHHQQLVAHAARQEPQGQEIQSENLIMEKQLSPRMQNNEELPTYEEAKVQSQYFRGQQHASVGAAFYVTGVTNQKMRTEGRPSVQRLNPGKMHQDEGLRDLKQGHVRSLSERLMQMSLATSGVKAHPPVTSAPLSPPQPNDLYKNPTSSSEFYKAQGPLPNQHSLKGMEHRGPPPEYPFKGMPPQSVVCKPQEPGHFYSEHRLNQPGRTEGQLMRYQHPPEYGAARPAQDISLPLSARNSQPHSPTSSLTSGGSLPLLQSPPSTRLSPARHPLVPNQGDHSAHLPRPQQHFLPNQAHQGDHYRLSQPGLSQQQQQQQQQHHHHHHHQQQQQQQPQQQPGEAYSAMPRAQPSSASYQPVPADPFAIVSRAQQMVEILSDENRNLRQELEGCYEKVARLQKVETEIQRVSEAYENLVKSSSKREALEKAMRNKLEGEIRRMHDFNRDLRERLETANKQLAEKEYEGSEDTRKTISQLFAKNKESQREKEKLEAELATARSTNEDQRRHIEIRDQALSNAQAKVVKLEEELKKKQVYVDKVEKMQQALVQLQAACEKREQLEHRLRTRLERELESLRIQQRQGNCQPTNVSEYNAAALMELLREKEERILALEADMTKWEQKYLEENVMRHFALDAAATVAAQRDTTVISHSPNTSYDTALEARIQKEEEEILMANKRCLDMEGRIKTLHAQIIEKDAMIKVLQQRSRKEPSKTEQLSCMRPAKSLMSISNAGSGLLSHSSTLTGSPIMEEKRDDKSWKGSLGILLGGDYRAEYVPSTPSPVPPSTPLLSAHSKTGSRDCSTQTERGTESNKTAAVAPISVPAPVAAAATAAAITATAATITTTMVAAAPVAVAAAAAPAAAAAPSPATAAATAAAVSPAAAGQIPAAASVASAAAVAPSAAAAAAVQVAPAAPAPVPAPALVPVPAPAAAQASAPAQTQAPTSAPAVAPTPAPTPTPAVAQAEVPASPATGPGPHRLSIPSLTCNPDKTDGPVFHSNTLERKTPIQILGQEPDAEMVEYLI
partner: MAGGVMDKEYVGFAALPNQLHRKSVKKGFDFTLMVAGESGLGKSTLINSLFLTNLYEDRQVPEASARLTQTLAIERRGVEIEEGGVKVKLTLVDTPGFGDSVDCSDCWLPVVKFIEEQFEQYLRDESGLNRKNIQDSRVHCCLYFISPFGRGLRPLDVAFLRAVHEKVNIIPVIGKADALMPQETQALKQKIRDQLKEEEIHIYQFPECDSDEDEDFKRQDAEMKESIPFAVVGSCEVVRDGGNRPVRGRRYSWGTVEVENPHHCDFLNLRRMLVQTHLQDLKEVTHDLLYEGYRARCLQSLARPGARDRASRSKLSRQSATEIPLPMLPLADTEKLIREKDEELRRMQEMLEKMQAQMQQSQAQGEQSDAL
B5: Ubiquitin thioesterase OTUB2 (Homo sapiens), Q96DC9 (parent)
chain: MSETSFNLISEKCDILSILRDHPENRIYRRKIEELSKRFTAIRKTKGDGNCFYRALGYSYLESLLGKSREIFKFKERVLQTPNDLLAAGFEEHKFRNFFNAFYSVVELVEKDGSVSSLLKVFNDQSASDHIVQFLRLLTSAFIRNRADFFRHFIDEEMDIKDFCTHEVEPMATECDHIQITALSQALSIALQVEYVDEMDTALNHHVFPEAATPSVYLLYKTSHYNILYAADKH
partner: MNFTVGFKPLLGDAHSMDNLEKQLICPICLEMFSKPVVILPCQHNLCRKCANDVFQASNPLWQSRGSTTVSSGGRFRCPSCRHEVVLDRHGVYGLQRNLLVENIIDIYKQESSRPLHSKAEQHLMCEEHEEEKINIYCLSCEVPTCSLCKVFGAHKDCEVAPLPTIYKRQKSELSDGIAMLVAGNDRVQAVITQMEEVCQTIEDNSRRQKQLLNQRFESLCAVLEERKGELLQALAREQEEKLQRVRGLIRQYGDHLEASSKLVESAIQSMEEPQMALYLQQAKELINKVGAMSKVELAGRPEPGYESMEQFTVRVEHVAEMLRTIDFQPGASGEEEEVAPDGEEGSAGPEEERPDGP

Variants of: B1
Conditions: with pnma1_human PNMA1, Q8ND90
Sequence of pnma1_human PNMA1, Q8ND90 (Q8ND90 whole entry): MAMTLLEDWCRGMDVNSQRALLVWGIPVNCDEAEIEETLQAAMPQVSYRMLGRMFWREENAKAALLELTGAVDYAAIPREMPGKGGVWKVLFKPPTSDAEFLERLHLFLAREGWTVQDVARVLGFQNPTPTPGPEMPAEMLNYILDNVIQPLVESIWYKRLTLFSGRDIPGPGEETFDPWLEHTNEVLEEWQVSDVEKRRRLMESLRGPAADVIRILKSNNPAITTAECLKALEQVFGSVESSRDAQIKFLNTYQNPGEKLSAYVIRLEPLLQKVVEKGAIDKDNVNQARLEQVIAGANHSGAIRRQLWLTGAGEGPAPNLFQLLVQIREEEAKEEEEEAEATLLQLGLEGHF

Variant	effect of a mutation on the interaction
F665S	with no effect
V493A	with no effect
G638S	with no effect

Variants of: B1
Conditions: with fam9b_human FAM9B

Variant	effect of a mutation on the interaction
F665S	with no effect
V493A	with no effect
G638S	with no effect

Variants of: B1
Conditions: with rbpms_human RBPMS

Variant	effect of a mutation on the interaction
G638S	with no effect

Variants of: B2
Conditions: with s5a1_human SRD5A1, P18405

Variant	effect of a mutation on the interaction
I277T	disrupting interaction strength

Variants of: B3
Conditions: with dtnb_human DTNB

Variant	effect of a mutation on the interaction
S173C	with no effect

Variants of: B4
Conditions: with sept1_human SEPTIN1, Q8WYJ6

Variant	effect of a mutation on the interaction
T899A	with no effect

Variants of: B5
Conditions: with tri54_human TRIM54, Q9BYV2

Variant	effect of a mutation on the interaction
V78I	with no effect
R146P	disrupting interaction strength
